The supplement of paper PMC10567573

B1: CHMP4C (parent)
chain: TNIRLPNVPSSSLPAQPNRKPGMS
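Further: lentivirally expressed fusions sorted by FACS into six bins by GFP to DsRed ratio, PSI derived from sequencing read proportions per bin multiplied by bin number.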

Variants of: B1
Experiment: protein stability index of a GFP-peptide fusion (GPS, HEK-293T) (PSI 1-6); higher = more stable
Conditions: c terminus: a fixed tail appended
Variant TNIRLPNVWSSSLPAQPNRKPGMS [P9W] has a protein stability index of 3.53.
TNIRLPNVDSSSLPAQPNRKPGMS [P9D] gave a protein stability index of 4.77.
For TNIRLPNVTSSSLPAQPNRKPGMS [P9T], the protein stability index was 4.55.
TNIRLPNVGSSSLPAQPNRKPGMS [P9G] showed a protein stability index of 4.52.
Variant TNIRLPNVLSSSLPAQPNRKPGMS [P9L] has a protein stability index of 3.85.
Work on TNIRLPNVKSSSLPAQPNRKPGMS [P9K] yielded a protein stability index of 4.78.
TNIRLPNVSSSSLPAQPNRKPGMS [P9S] showed a protein stability index of 4.68.
In the case of TNIRLPNVQSSSLPAQPNRKPGMS [P9Q], the protein stability index is reported as 5.12.
Variant TNIRLPNVCSSSLPAQPNRKPGMS [P9C] has a protein stability index of 4.33.
For TNIRLPNVRSSSLPAQPNRKPGMS [P9R], the protein stability index was 4.45.
In the case of TNIRLPNVISSSLPAQPNRKPGMS [P9I], the protein stability index is reported as 4.3.
Work on TNIRLPNVYSSSLPAQPNRKPGMS [P9Y] yielded a protein stability index of 3.62.
For TNIRLPNVHSSSLPAQPNRKPGMS [P9H], the protein stability index was 4.49.
TNIRLPNVNSSSLPAQPNRKPGMS [P9N] gave a protein stability index of 4.89.
Work on TNIRLPNVMSSSLPAQPNRKPGMS [P9M] yielded a protein stability index of 4.36.
In the case of TNIRLPNVFSSSLPAQPNRKPGMS [P9F], the protein stability index is reported as 4.22.
Work on TNIRLPNVVSSSLPAQPNRKPGMS [P9V] yielded a protein stability index of 4.71.
For TNIRLPNVESSSLPAQPNRKPGMS [P9E], the protein stability index was 4.94.
For TNIRLPNVASSSLPAQPNRKPGMS [P9A], the protein stability index was 4.62.
For TPIRLPNVPSSSLPAQPNRKPGMS [N2P], the protein stability index was 5.25.
For TMIRLPNVPSSSLPAQPNRKPGMS [N2M], the protein stability index was 4.66.
TFIRLPNVPSSSLPAQPNRKPGMS [N2F] showed a protein stability index of 3.43.
TYIRLPNVPSSSLPAQPNRKPGMS [N2Y] showed a protein stability index of 3.51.
For THIRLPNVPSSSLPAQPNRKPGMS [N2H], the protein stability index was 4.51.
With TIIRLPNVPSSSLPAQPNRKPGMS [N2I] the protein stability index was 3.44.
Variant TTIRLPNVPSSSLPAQPNRKPGMS [N2T] has a protein stability index of 4.59.
Work on TQIRLPNVPSSSLPAQPNRKPGMS [N2Q] yielded a protein stability index of 4.27.
Variant TVIRLPNVPSSSLPAQPNRKPGMS [N2V] has a protein stability index of 4.16.
With TKIRLPNVPSSSLPAQPNRKPGMS [N2K] the protein stability index was 4.24.
For TLIRLPNVPSSSLPAQPNRKPGMS [N2L], the protein stability index was 3.44.
With TWIRLPNVPSSSLPAQPNRKPGMS [N2W] the protein stability index was 3.01.
Variant TGIRLPNVPSSSLPAQPNRKPGMS [N2G] has a protein stability index of 4.24.
Work on TEIRLPNVPSSSLPAQPNRKPGMS [N2E] yielded a protein stability index of 5.05.
Work on TSIRLPNVPSSSLPAQPNRKPGMS [N2S] yielded a protein stability index of 4.7.
Variant TRIRLPNVPSSSLPAQPNRKPGMS [N2R] has a protein stability index of 4.08.
In the case of TNIKLPNVPSSSLPAQPNRKPGMS [R4K], the protein stability index is reported as 3.88.
Variant TNIPLPNVPSSSLPAQPNRKPGMS [R4P] has a protein stability index of 4.73.
For TNIMLPNVPSSSLPAQPNRKPGMS [R4M], the protein stability index was 4.51.
TNIFLPNVPSSSLPAQPNRKPGMS [R4F] showed a protein stability index of 4.18.
Work on TNILLPNVPSSSLPAQPNRKPGMS [R4L] yielded a protein stability index of 4.26.
TNICLPNVPSSSLPAQPNRKPGMS [R4C] showed a protein stability index of 4.77.
TNINLPNVPSSSLPAQPNRKPGMS [R4N] showed a protein stability index of 2.96.
In the case of TNIHLPNVPSSSLPAQPNRKPGMS [R4H], the protein stability index is reported as 4.06.
In the case of TNIWLPNVPSSSLPAQPNRKPGMS [R4W], the protein stability index is reported as 2.96.
In the case of TNIALPNVPSSSLPAQPNRKPGMS [R4A], the protein stability index is reported as 4.79.
With TNIYLPNVPSSSLPAQPNRKPGMS [R4Y] the protein stability index was 4.24.
Work on TNIDLPNVPSSSLPAQPNRKPGMS [R4D] yielded a protein stability index of 4.34.
For TNIGLPNVPSSSLPAQPNRKPGMS [R4G], the protein stability index was 4.69.
With TNIVLPNVPSSSLPAQPNRKPGMS [R4V] the protein stability index was 4.35.
TNITLPNVPSSSLPAQPNRKPGMS [R4T] showed a protein stability index of 4.61.
In the case of TNIQLPNVPSSSLPAQPNRKPGMS [R4Q], the protein stability index is reported as 4.19.
With TNIELPNVPSSSLPAQPNRKPGMS [R4E] the protein stability index was 4.68.
TNIILPNVPSSSLPAQPNRKPGMS [R4I] showed a protein stability index of 3.37.
In the case of TNISLPNVPSSSLPAQPNRKPGMS [R4S], the protein stability index is reported as 4.29.
TNIRLKNVPSSSLPAQPNRKPGMS [P6K] gave a protein stability index of 4.23.
Work on TNIRLMNVPSSSLPAQPNRKPGMS [P6M] yielded a protein stability index of 3.36.
Work on TNIRLQNVPSSSLPAQPNRKPGMS [P6Q] yielded a protein stability index of 3.19.
In the case of TNIRLSNVPSSSLPAQPNRKPGMS [P6S], the protein stability index is reported as 4.44.
In the case of TNIRLENVPSSSLPAQPNRKPGMS [P6E], the protein stability index is reported as 4.48.
For TNIRLLNVPSSSLPAQPNRKPGMS [P6L], the protein stability index was 2.99.
TNIRLNNVPSSSLPAQPNRKPGMS [P6N] gave a protein stability index of 4.18.
Work on TNIRLRNVPSSSLPAQPNRKPGMS [P6R] yielded a protein stability index of 4.04.
For TNIRLFNVPSSSLPAQPNRKPGMS [P6F], the protein stability index was 3.28.
Work on TNIRLCNVPSSSLPAQPNRKPGMS [P6C] yielded a protein stability index of 3.56.
TNIRLANVPSSSLPAQPNRKPGMS [P6A] gave a protein stability index of 3.96.
With TNIRLINVPSSSLPAQPNRKPGMS [P6I] the protein stability index was 2.71.
For TNIRLVNVPSSSLPAQPNRKPGMS [P6V], the protein stability index was 3.1.
TNIRLHNVPSSSLPAQPNRKPGMS [P6H] showed a protein stability index of 3.02.
Variant TNIRLDNVPSSSLPAQPNRKPGMS [P6D] has a protein stability index of 4.36.
With TNIRLYNVPSSSLPAQPNRKPGMS [P6Y] the protein stability index was 2.66.
For TNIRLGNVPSSSLPAQPNRKPGMS [P6G], the protein stability index was 4.26.
Work on TNIRLTNVPSSSLPAQPNRKPGMS [P6T] yielded a protein stability index of 3.75.
TNIRLWNVPSSSLPAQPNRKPGMS [P6W] showed a protein stability index of 3.34.
In the case of TNIRLPMVPSSSLPAQPNRKPGMS [N7M], the protein stability index is reported as 4.82.
Variant TNIRLPKVPSSSLPAQPNRKPGMS [N7K] has a protein stability index of 4.52.
In the case of TNIRLPEVPSSSLPAQPNRKPGMS [N7E], the protein stability index is reported as 4.26.
In the case of TNIRLPYVPSSSLPAQPNRKPGMS [N7Y], the protein stability index is reported as 4.13.
TNIRLPQVPSSSLPAQPNRKPGMS [N7Q] showed a protein stability index of 4.1.
TNIRLPIVPSSSLPAQPNRKPGMS [N7I] gave a protein stability index of 3.95.
Variant TNIRLPLVPSSSLPAQPNRKPGMS [N7L] has a protein stability index of 4.67.
With TNIRLPTVPSSSLPAQPNRKPGMS [N7T] the protein stability index was 4.95.
For TNIRLPAVPSSSLPAQPNRKPGMS [N7A], the protein stability index was 4.61.
With TNIRLPVVPSSSLPAQPNRKPGMS [N7V] the protein stability index was 4.45.
TNIRLPDVPSSSLPAQPNRKPGMS [N7D] showed a protein stability index of 4.49.
Variant TNIRLPCVPSSSLPAQPNRKPGMS [N7C] has a protein stability index of 4.56.
For TNIRLPHVPSSSLPAQPNRKPGMS [N7H], the protein stability index was 4.62.
TNIRLPFVPSSSLPAQPNRKPGMS [N7F] showed a protein stability index of 3.38.
In the case of TNIRLPGVPSSSLPAQPNRKPGMS [N7G], the protein stability index is reported as 4.76.
Variant TNIRLPPVPSSSLPAQPNRKPGMS [N7P] has a protein stability index of 5.37.
TNIRLPWVPSSSLPAQPNRKPGMS [N7W] gave a protein stability index of 4.11.
Variant TNIRLPSVPSSSLPAQPNRKPGMS [N7S] has a protein stability index of 4.89.
In the case of TNIRLPRVPSSSLPAQPNRKPGMS [N7R], the protein stability index is reported as 4.41.
In the case of TNIRLPNHPSSSLPAQPNRKPGMS [V8H], the protein stability index is reported as 4.77.
TNIRLPNRPSSSLPAQPNRKPGMS [V8R] showed a protein stability index of 4.42.
